Test: soluble fraction after stress (log2 fold change); higher = more stays soluble; pooled small domains, quantitative proteomics
Details: stress: pH 4
Summary of the method: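 How much of each domain stays soluble after acid stress, expressed as a fold change, is used to gauge aggregation propensity. Pooled custom libraries of small domains underwent pH 4 stress before high-throughput quantitative proteomics. A higher log2 value means more of the domain stayed soluble.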

Compared with “HMARVSGIDLPKNKRGYIGLTYIYGIGRSTALHILNSAGVDPEKKVHEWNDDETTAIRNIINAEIKVEGAL”, “HMNMLGEQVRNIRKSRGFTLKALAEQTGLSIGYISQIERNLTDPSLSTLRKISAALDVPTYLFMG” is higher in “soluble fraction (log2)” value: -0.248 for the first, 0.0605 for the second.

“HMDPTIAAIRKKLKNWTIVEVHMTREELEQAVIDGKVDVFLSSAGFYRRLVRFGARDLATAMSPAYPD” and “HMEAEDLRDWVGARGIAYTALRPAGIAVVNGRRVDVVSEGAFVNRDDPVEVVRVEGRRIVVKP” are within 0.2 log units of each other in “soluble fraction (log2)” value: -0.151 for the first, -0.106 for the second.

Compared with “HMEVPVQYIKFKIPENHFWAKKKVADIILPPETLLVLLQRGSDKMIPDGETVLLPEDTLVLIAKAPG”, “HMDLLKANNLSQINVDKLTDEEILKYSQQLKQSGLTESQAEQIAIARGMPATEIAKLKQRLISLTNMQ” is higher in “soluble fraction (log2)” value: -0.783 for the first, 0.213 for the second.

Compared with “HMFEATGKITGTEVSFRRKPTTDSERILFFDINTEFRVIGINNGWYKGVYQGKTGYVRSDFVEIVGG”, “HMHDHKTRLQELAAQRFGSAPSYLLTADGPAHDRRFHASVEVGGRSFGPGTGKSKKRAEQVAAHIAWDALS” is higher in “soluble fraction (log2)” value: -0.448 for the first, 0.415 for the second.

“HMATEYIIPTVTNKKLEEAIGIAQLRGFEISVDEYKPSDIDEGTVLEQSPAAGTNAKQGDTISVTVSSG” and “HMKTITLDEAQEIALAEVDGKVTRAVEETDDGRSYYEFDIITNDQKHELEVDASSGKITKNEIDEDYVPS” are within 0.2 log units of each other in “soluble fraction (log2)” value: -0.103 for the first, -0.0471 for the second.

Compared with “HMQMSERENTILLTKRYIERGEYERAMNLLDSLLIKNALDEEALAMIDEIIALKAGASLQDFPRY”, “HMGSALLEAGADDAGQRLDQWLAAKLGPSISRSRVQALIKQGAVLVGGKPAGEAKRKLVAGDVVSVALPEP” is higher in “soluble fraction (log2)” value: -1.48 for the first, 0.133 for the second.

First: HMETVRLSVDAQGAYYWNEQRVDDSALPDLLREASGRKPQPDLHIRGDKAVRYERVAEAMAAAQRAGLKKI
Second: HMDVLNPGDKAVTTASWLNFRTGPGMQNKVASVLARNTTVNIIEKSNEWYKVSLANGSTGYVHGMYLSKIT
The “soluble fraction (log2)” value of the first is lower: -0.178 for the first, 0.105 for the second.

First: HMDIFSSFVAIKNANVRELPTAKSAQVATLSKGSEVTALGKVKGKNWYLVARDGKELGYVFGSLIAEAET
Second: HMSTESAHLGERMLNQALRAMHIEPDQITEAHWQKLIRDYGLKKKSEILTDIGLGKRQNVMVAHQLLAMG
The “soluble fraction (log2)” value of the first is higher: 0.143 for the first, -0.143 for the second.

Going from “HMKVSVPDIMDNSSLRQAEAKLRALGFRVTEPEYISGEKDWVYSVTYKGRTLNAGDKVPHEALLTLHVGNG” to “HMLDGFEVGMTVMKKSGTEIGFTGWPSFADKDELPIIERIDTSDSTLLLKFKDMSWWIKASLVEPS”, the “soluble fraction (log2)” value falls from no less than 0.43 to -0.396.

First: HMLPDGEAFVKVNTSLNIRTGPWGQIVGWFHNNDKVKIIGRDGDWYKISHNGQTRYIHSRYVSSSR
Second: HMHADIAATVVATMRQLGVLGLPRNYEIFYEALSGTNRELSLAVVSLSNRPTQDDLDRIGRRFFA
The “soluble fraction (log2)” value of the first is higher: -0.0297 for the first, -0.426 for the second.

“HMKEQIKVPDLSNKTPEEAKKELNTLGLGARKGGEESSDTVEEGLITRQEPAAGEQVDKNTQILFYVSTGK” and “HMNPSAFSEYSFELLQSALLKKKIDENLSNQTIARDAGVSEAFVQKVLTNNVKRPSVKNRVRMISYLGLD” are within 0.2 log units of each other in “soluble fraction (log2)” value: 0.0545 for the first, 0.00228 for the second.

“HMLKIVRSREEVESRLYTIYGNVKGRRLYNFYLSLIIDGLDIVKARTSKNVYYTNIRNLKNAGIDFSQKIN” and “HMEFLDQAFLHETMRKVNQDATINLLKKVYEVPQKFIGRKVTVQYDPEDLSRVYVKDLSFPEPVTVYPV” are within 0.2 log units of each other in “soluble fraction (log2)” value: -0.0641 for the first, 0.12 for the second.

“HMRIAQYRQIENDLLEQINLGYYKKGDLIPTELELSATYHVSRVTVRKATDNLVAKGILQRVAGVGTFVSR” and “HMEFYYSDLVGMIVYDTGGNELGKVQAVLNHGAGDLLEIHGVNLKTSILIPFTKEAVPTVDIAARRIVTDP” are within 0.2 log units of each other in “soluble fraction (log2)” value: 0.0958 for the first, 0.00543 for the second.

First: HMKSKYLIKIEGDFDEKDLYKYLINVSIVNHTKNNGFTEVEFYNDNYSLQQNFLKSMLNDGIIITEFKKVE
Second: HMDIESREAWVDASGMGVRLDRWLTQLAPEFSRNHLQSLIERGAVRVDGQPALVASRKLRIGQQVAVSLIP
The “soluble fraction (log2)” value of the first is lower: -0.558 for the first, -0.0568 for the second.

First: HMTLRDRDQALEELWGQLADVPMDSETERLLEPFMGWGVGVSRDEIWHWFDRRHSKGIGHLLYS
Second: HMINEVVSLRDVPSFIGKAKRDVIRIAEENNLKIKINGNGYVKEQTPNPGNKYKSNQEIKVFLEPG
The “soluble fraction (log2)” value of the first is lower: -1.67 for the first, 0.0157 for the second.

Going from “HMRYFDDEELNNKFLEFLSMRKKIRKPVRTDRALKALLKKLHELSGGDVGLMKQIIDQSLDKEWLGLFEL” to “HMSSDLDQYMKNIRKQHNLSKREFAKQLGISAATIVRIENGITVSPSKNLISKLAYYLQKSEVEILQDIQS”, the “soluble fraction (log2)” value rises from -0.6 to -0.393.

Going from “HMTANTLDLTYSQFLENVKNGSVNDVTIRGNNVSGNFSDGRKFKTYAVNDPTLVEKLTKMGVNISAAPL” to “HMINLDGIGEKISRLRKEQGVTIRELSEYTGYSVGFLSNLETGKNSPTVESLQRVAEALRTDIIEILTK”, the “soluble fraction (log2)” value falls from 0.14 to -0.754.

Compared with “HMSEKRLHLVVDESDVNTRIDKYIADELDGYSRSFIQKLIKDNNVLVNGRAVKPNYNIGISDNIDIVLPKL”, “HMAAVPYQVKITTEDLRIRTGPGTNHDFTGQYTGKGVFTIVEESEGSGAPIWGRLKSGAGWIGIDPSWSVR” is lower in “soluble fraction (log2)” value: 0.188 for the first, -0.524 for the second.

“HMTPKVTVPDVTGQTFSSAKQILESLGFTVKQQGSTDETDQVIDQNPTSGEADKGATITLTTKSS” and “HMYIKYETVLQNITERIAALRKNGTLVLDGERTLAAEFDASRGTIRKAMRQLEENGTILREGYVTRILPE” are within 0.2 log units of each other in “soluble fraction (log2)” value: -0.139 for the first, -0.299 for the second.
